The source of these data is the RNAGym collection of RNA variant scans (doi:10.7554/elife.90254).

The labels stand for the following.
B1: OR4K15 (parent)
chain: GUUAACGGUCAUAGGCCAUGGAAACUAGGAGCACCAUUUCGCUGCCAGUGAAGAAAUGAACAAAGAAAAUCUGGGCCAGGCAGGCAUCAAAAGAAAUAGUCUUGCGCUCAACCAGAAAGUCUGUAAUCAUUUUAAGGGUA

This series covers variants of B1. Description: self-cleavage, relative activity (ratio to wild type); higher = more cleavage; in vitro, sequencing; the parent is a self-cleaving ribozyme.
Regarding A67G A129C, the self-cleavage turned out to be 1.2.
For U72C A78U, the self-cleavage is 0.15.
As for A24C U131C, the figure is 1.82; as for U49G U131C, 1.56.
For U127A U130C, the self-cleavage is 0.43.
As for C46U U102A, the figure is 1.59; as for A22U C121U, 0.
The result for U102A U130A reads 0.32.
As for U3A A5U, the figure is 0.64.
Regarding A91U U132C, the self-cleavage came out at 1.62.
As for A56G G83A, the figure is 1.67.
The result for U2C C16U reads 0.69; that for A13U G80C, 0.26; that for A13C, 1.33.
For G1A G138A, the self-cleavage came out at 2.03.
As for U87A U102C, the figure is 1.71.
As for A54G C76G, the figure is 0.22.
As for A24G U38C, the figure is 1.46; as for A11U U49A, 0.68.
For the variant U43G A114G, the self-cleavage was determined as 0.27.
The result for A22G U57A reads 1.15; that for C34A G73A, 0.17.
Consider G15A A66U, for which the self-cleavage is 1.18.
With A33G A36U, the self-cleavage came out at 1.33.
For the variant U3G A11U, the self-cleavage was 0.74.
As for A60G A98U, the figure is 2.21; as for U19A U131A, 0.78; as for C71A A117G, 0.35.
As for G50A A95U, the figure is 1.28.
Consider A111U, for which the self-cleavage is 0.08.
A22G G83A: the self-cleavage worked out at 1.27.
Take A33G A135G: the self-cleavage is 0.69.
The result for C77A U131C reads 0.5; that for U57C A91G, 0.84.
The result for A52U A98U reads 1.72; that for A5G U9A, 1.38; that for C40G U72C, 0.41.
The result for A4U A96G reads 1.05.
For C76A A110G, the self-cleavage was found to be 0.05.
As for U103C U133C, the figure is 1.32; as for U26C U70C, 0.38; as for G50A A51G, 1.82.
The result for A90G C112G reads 0; that for A33U U72G, 0.51; that for A55G A135U, 0.94.
In the case of A4G A11G, the self-cleavage came out at 0.86.
The result for C35U U131A reads 1.01.
The result for G31A U103C reads 0.46; that for A90G A129U, 0.35; that for U9A U38C, 1.05.
As to A59U A94G, the self-cleavage came to 1.02.
As to A63G A64U, the self-cleavage came out at 1.62.
As for G48U A96G, the figure is 1.28; as for A82U U122A, 0.16; as for U49C U102C, 2.
As for A118C U139A, the self-cleavage was determined as 1.24.
In the case of U108A A116U, the self-cleavage amounted to 0.02.
As for A23G U72A, the figure is 0.23; as for A24G U39A, 1.45.
The result for A55U U57C reads 1.76; that for A22U A114G, 1.09.
The result for A23G A66U reads 1.43.
With A52G U122A, the self-cleavage stood at 0.76.
Turning to A98G U133A, the self-cleavage turned out to be 0.24.
The result for U12A A22C reads 1.51.
For the variant A13U U132A, the self-cleavage turned out to be 0.96.
As for A5U U9C, the figure is 1.27.
As for C85A G106U, the figure is 0.03; as for C76G A82U, 0.22; as for A13G A56U, 1.33.
Take C77A A114G: the self-cleavage turned out to be 0.32.
The result for U43C U124C reads 1.13.
As for U26G, the figure is 1.33; as for U37A A67U, 0.67.
As for U102C U108A, the figure is 0.01; as for U49C A78U, 0.37.
Regarding A63G A89U, the self-cleavage was found to be 1.13.
The result for A22G C46G reads 1.35.
Turning to A54G A140U, the self-cleavage was 1.25.
A36G A117G: the self-cleavage is 2.27.
The result for A18G U19C reads 1.06.
The result for A27G A90G reads 1.41; that for U72A U139C, 0.23; that for A36U U127A, 2.98.
As to A18U A140U, the self-cleavage came to 1.33.
Regarding A22G A91G, the self-cleavage was found to be 0.49.
As for A98G U127C, the figure is 0.39; as for U39C G41A, 2; as for C77U G80A, 0.37.
On to A23G A86C, for which the self-cleavage came out at 1.06.
The result for A94G reads 1.39; that for A91U A114U, 0.14.
With U100C G123U, the self-cleavage was found to be 2.81.
As for A5G A92G, the figure is 0.53; as for A90G A110U, 0.94.
Regarding A114G U127C, the self-cleavage was determined as 0.11.
As for C17U U131A, the figure is 0.93; as for U39C A51G, 1.5.
For the variant U12A U122A, the self-cleavage came out at 0.62.
The result for U57A A89U reads 0.95.
The result for A33U C128U reads 1.3; that for C40A A51G, 1.81; that for A18U G79A, 0.05.
As for A18U A69U, the figure is 1.37; as for A13U A59G, 0.41.
As to A30G U124A, the self-cleavage came to 0.78.
As for A69G A90U, the figure is 1.9; as for A5G A11G, 0.63.
For the variant A95G A110C, the self-cleavage was found to be 0.39.
The result for A30U A90G reads 1.31; that for A27G C105A, 0.04.
As for U72C A86G, the figure is 0.14.
The result for A92U U130C reads 1.59.
As to G48C U131C, the self-cleavage is 0.69.
As for A59U U127C, the figure is 0.28; as for A82U A94G, 0.26; as for A11U A68G, 0.99.
The result for A96G A110C reads 0.15; that for A69U U103A, 1.87.
The result for C46U A96G reads 2.13; that for A64G A68U, 1.42.
Take A69G U103C: the self-cleavage is 0.73.
Consider U102C A129G, for which the self-cleavage was 1.74.
The result for U2A A23C reads 0.29; that for C101A U122C, 0.13.
The result for A22U U132C reads 1.99.
As for G31U A63G, the figure is 2.02.
For the variant C121U, the self-cleavage turned out to be 1.65.
The result for G20U U97C reads 0.63.
On to C16G A55G, for which the self-cleavage came out at 0.86.
As for A86U G123A, the figure is 1.59.
As for U2C C109U, the figure is 0.29; as for A5C U108C, 0.03.
The result for U19A A67G reads 1.84; that for A13G G75C, 0.43.
On to A5G A22U, for which the self-cleavage amounted to 1.01.
For U26C A30G, the self-cleavage came out at 1.25.
As for A27G A62U, the figure is 1.15; as for A78G U103G, 0; as for A30G A59G, 1.5.
The result for U9C G106A reads 0.01; that for U19A C25U, 1.86.
As for C81A A126G, the figure is 0.17; as for A11G U43C, 0.92; as for A47U A52G, 0.81.
For A24C A59G, the self-cleavage was 1.51.
The result for A55G A140U reads 0.81; that for G8A U108A, 0.05; that for U3C U37C, 1.05.
As for U19C A69C, the figure is 1.71; as for U12C A22G, 0.98; as for G28A A91G, 1.19.
Turning to U102G A126G, the self-cleavage amounted to 0.69.
The result for A62G G136U reads 1.1.
As for U72C U103G, the self-cleavage was 0.01.
The result for U9A A62U reads 0.88; that for A118G U127A, 1.26; that for A13G C85U, 0.89.
As for A24C A30G, the figure is 1.02; as for A63U A98G, 0.8.
The result for A82C U120C reads 0.11; that for U19A A86U, 1.87.
In the case of U43A A82U, the self-cleavage was determined as 0.12.
The result for A27G A118G reads 0.47; that for A23U, 1.19; that for A33U A59C, 2.23.
The result for A64U A126G reads 1.12.
